The target in one assay is T1, recombinant human CD55 (Homo sapiens, UniProt P08174).
T1 construct: purchased R&D Systems 2009-CD/CF
T1 sequence (P08174 35-353): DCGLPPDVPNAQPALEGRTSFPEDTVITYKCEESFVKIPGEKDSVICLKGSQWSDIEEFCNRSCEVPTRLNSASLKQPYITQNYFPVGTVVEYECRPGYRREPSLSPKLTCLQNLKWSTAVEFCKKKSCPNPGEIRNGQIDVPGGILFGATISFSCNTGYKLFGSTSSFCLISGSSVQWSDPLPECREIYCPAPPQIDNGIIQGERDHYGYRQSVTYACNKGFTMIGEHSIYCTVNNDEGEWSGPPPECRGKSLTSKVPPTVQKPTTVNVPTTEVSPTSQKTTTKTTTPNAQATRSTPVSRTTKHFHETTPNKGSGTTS
Kind of assay: Indirect ELISA, affinity for CD55. In kind it is binding. As to conditions: full-length antibody 0.0001-10 nM on CD55 coated at 1 μg/mL. As for the experimental part:
(§1) The binding ability of the G4-1H monoclonal antibody prepared in Example 2 for CD55 was investigated by indirect ELISA. For the indirect ELISA, recombinant human CD55 (R&D Systems, USA) diluted to 1 μg/mL in 50 μL of PBS was added to a 96-well immunoplate (Corning, USA) and then adsorbed by keeping at 4° C. overnight. After incubation for 1 hour at room temperature in a buffer containing 3% bovine serum albumin (Millipore, USA), followed by washing with a buffer containing 0.5% Tween 20 (Amresco, USA) three times, 50 μL of the serially diluted antibody (0.0001, 0.0003, 0.001, 0.003, 0.01, 0.03, 0.1, 0.3, 1, 3 and 10 nM) was treated per well. After incubation at room temperature for 2 hours for antibody-antigen binding, the antibody-antigen complex was washed three times with a buffer containing 0.5% Tween 20 (Amresco, USA). After treating with 50 μL of anti-human immunoglobulin Fc-HRP antibody (Jackson Immunoresearch, USA) diluted to 1:3,000 per well, followed by incubation at room temperature for 1 hour and washing three times with a buffer containing 0.5% Tween 20 (Amresco, USA), color development was conducted for 10 minutes by adding 50 μL of 3,3′,5,5′-tetramethylbenzidine (TMB) (ThermoFisher Scientific, USA).
The affinity of the antibodies screened in Example 6 for CD55 was investigated by indirect ELISA. The indirect ELISA was conducted in the same manner as in Example 3.
The affinity of the antibodies prepared in Example 8 for CD55 was investigated by indirect ELISA. The indirect ELISA was conducted in the same manner as in Example 3. […]
A general note: In an ELISA, binding on a coated surface is turned into a signal by an enzyme label.

Assay [1] deals with T2, recombinant human CD55 (R&D Systems 2009-CD/CF) (human, UniProt P08174 35-353).
T2 construct: Bought recombinant protein coated on ELISA plates; also called decay-accelerating factor; DAF
T2 sequence (looked up): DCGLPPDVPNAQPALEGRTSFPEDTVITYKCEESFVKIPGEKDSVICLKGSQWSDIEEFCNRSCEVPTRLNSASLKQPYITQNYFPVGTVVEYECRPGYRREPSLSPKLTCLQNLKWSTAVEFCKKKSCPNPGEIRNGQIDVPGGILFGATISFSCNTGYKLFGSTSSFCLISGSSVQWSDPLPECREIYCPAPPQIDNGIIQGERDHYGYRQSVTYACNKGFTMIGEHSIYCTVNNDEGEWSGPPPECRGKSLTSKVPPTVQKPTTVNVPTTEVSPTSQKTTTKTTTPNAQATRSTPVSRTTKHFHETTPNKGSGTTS
Kind of assay: indirect ELISA, recombinant human CD55 coated.

In assay [2] the target is T2, recombinant human CD55 (R&D Systems …). The assay is described as follows: phage ELISA, recombinant human CD55 coated, anti-M13-HRP; 4-1H phage clone as control. The method, then: 192 clones screened from the products of the third and fourth biopanning were incubated overnight at 37° C. on a 96-deep well plate after adding 100 μg/mL carbenicillin, 70 μg/mL kanamycin and VCSM13 helper phage to induce the proliferation of phages wherein the antibody was expressed. After centrifuging the culture, the supernatant containing the phage was incubated at 37° C. for 2 hours on an ELISA plate coated with recombinant human CD55 (R&D Systems 2009-CD/CF, USA). Then, the antibody binding to CD55 was identified by ELISA using HRP-conjugated anti-M13 antibody (Merck, USA) as a secondary antibody.

For assay [3], the system named is Burkitt lymphoma BJAB cells. Kind of assay: CDC / apoptosis by FACS (annexin V/7-AAD) in BJAB cells with complement human serum. In kind it is cell-based. As to conditions: 50 μg/mL anti-CD55 antibody + 20 μg/mL rituximab, 50% complement human serum, 1 hour. An excerpt: BJAB cells have complement resistance and this is due to the expression of CD55 (Golay, et al., Blood, 95 (12):3900-8, 2000). For this reason, they show low response to rituximab the main therapeutic mechanism of which is CDC (complement-dependent cytotoxicity). In order to confirm the possibility of improving the therapeutic effect of rituximab for Burkitt lymphoma, which is known as malignant B cell lymphoma, the apoptotic ability of co-administration with EP-10H in Burkitt lymphoma BJAB cells was investigated. For investigation of the effect of co-administration, 5×10^5 BJAB cells were cultured for 1 hour under the condition of 37° C. and 5% CO2 after treating with 100 μL of RPMI supplemented with 50% complement human serum (Sigma, USA), containing 50 μg/mL of 4-1H or EP-10H and 20 μg/mL of rituximab. Then, CDC was observed by identifying apoptotic cells with Attune N×T (ThermoFisher Scientific, USA), which is a FACS analysis equipment, using an FITC annexin V apoptosis detection kit with 7-AAD (BioLegend, USA) (FIG. 4). […] It was confirmed that this effect was more significant for EP-10H having higher affinity for CD55.
The apoptotic ability of the CD20×CD55 bispecific antibody was investigated by the method of Example 10-1. […]
In general terms: In flow cytometry, cells or beads pass a laser one at a time.

The next assay relates to Ramos-RR cells. The assay is described as follows: CDC / apoptosis by FACS in rituximab-resistant Ramos-RR cells with complement human serum. In kind it is cell-based. As to conditions: anti-CD55 antibody + rituximab, method of Example 10-1.
Another assay relates to K562-IR cells. Kind of assay: Apoptosis by FACS in imatinib-resistant K562-IR cells. It is filed as cell-based. As to conditions: 2 μM imatinib + 10 μg/mL anti-CD55 antibody, 24 hours. As for the experimental part:
Immediately thereafter, the cells were treated with 2 μM imatinib or with 2 μM imatinib and 10 μg/mL 4-1H or EP-10H diluted with 500 μL of RPMI, and then cultured under the condition of 37° C. and 5% CO2 for 24 hours. Then, apoptotic cells were analyzed with the FACS analysis equipment Attune N×T using 7-AAD and an FITC annexin V apoptosis detection kit (FIG. 6b).

For the next assay, the system named is PC9-GR cells. Kind of assay: Apoptosis by FACS in gefitinib-resistant PC9-GR cells. In kind it is cell-based. As to conditions: 5 μg/mL gefitinib + 5 μg/mL anti-CD55 antibody, 24 hours. The method, then:
24 hours later, after treating with 5 μg/mL gefitinib or 5 μg/mL gefitinib and 5 μg/mL 4-1H or EP-10H diluted with 500 μL of RPMI, the cells were cultured again for 24 hours under the condition of 37° C. and 5% CO2. Then, apoptotic cells were analyzed with the FACS analysis equipment Attune N×T using 7-AAD and an FITC annexin V apoptosis detection kit (FIG. 7b).

In assay [4] the target is T2, recombinant human CD55 (R&D Systems …). The assay is described as follows: indirect ELISA, recombinant human CD55 coated, anti-human Fc-HRP. As for the experimental part: as §1

Entries after “also recorded” stand apart in the source; their conditions may differ.

B1: 10H(A) (antibody, V domains shown)
VH: EVQLVESGGGLVQPGGSLRLSCAASGFTFSDRGMAWVRQAPGKGLEWVSGISSSGRYTYYAPAVKGRATISRDNSKNTLYLQMNSLRAEDTAVYYCAKNAAAGGWHAAYIDAWGQGTTVTVSS
VL: SYELTQPPSVSVSPGQTASITCSGGGGSYGWYQQKPGQSPVTVIYWNDKRPSGIPERFSGSKSGNTATLTISGTQAMDEADYYCGGWDSSTYAIFGGGTKLTVL
Regarding B1, the “affinity for CD55 (indirect ELISA, absorbance at 450 nm)” value (“affinity for CD55” below) in the assay with recombinant human CD55 is reported as “lower affinity than EP-10H”. Further, the binding result in assay [1] is on record as “binds”.

B2: EP-10H scFv clone displayed on phage (scFv, V domains shown)
VH: EVQLVESGGGLVQPGGSLRLSCAASGFTFSDRGMAWVRQAPGKGLEWVSGISSSGRYTYYAPAVKGRATISRDNSKNTLYLQMNSLRAEDTAVYYCAKNAVAGGWHAAYIDAWGQGTTVTVSS
VL: SYELTQPPSVSVSPGQTASITCSGGGGSYGWYQQKPGQSPVTVIYWNDKRPSGIPERFSGSKSGNTATLTISGTQAMDEADYYCGGWDSSTYAIFGGGTKLTVL
notes: In the screening ELISA it stood as scFv on phage (pComb3x)
B2: the binding result in assay [2] is reported as “binds”.

B3: EP-10H: anti-CD55 antibody different from G4-1H only at the H100A site (G to V), VL SEQ ID NO 4, VH SEQ ID NO 19 (antibody, V domains shown)
VH: EVQLVESGGGLVQPGGSLRLSCAASGFTFSDRGMAWVRQAPGKGLEWVSGISSSGRYTYYAPAVKGRATISRDNSKNTLYLQMNSLRAEDTAVYYCAKNAVAGGWHAAYIDAWGQGTTVTVSS
VL: SYELTQPPSVSVSPGQTASITCSGGGGSYGWYQQKPGQSPVTVIYWNDKRPSGIPERFSGSKSGNTATLTISGTQAMDEADYYCGGWDSSTYAIFGGGTKLTVL
modifications: EP-1E_VH; G4-1H_VL
For B3, in the assay with recombinant human CD55, the “affinity for CD55” value is recorded as “comparable affinity”. Further, the “effect of rituximab (CDC, apoptotic cells) on co-administration with anti-CD55 antibody” value in assay [3] was “the effect was increased; also recorded: The increase was higher for a combination of rituximab and EP-10H than a combination of rituximab and 4-1H”. In the assay on Ramos-RR cells, the “apoptosis by rituximab on co-administration with anti-CD55 antibody” value is “increased apoptosis; also recorded: more significantly increased the apoptosis by rituximab as compared to the co-administration with 4-1H”. In addition, in the assay on K562-IR cells, the “apoptosis on co-administration with imatinib” value was “apoptosis was induced; also recorded: higher apoptotic effect than the co-administration of 4-1H and imatinib”. In addition, in the assay with PC9-GR cells, the “apoptosis on co-administration with gefitinib” value was “apoptosis was induced; also recorded: higher apoptotic effect than the co-administration of 4-1H and gefitinib”.

B4: G4-1H (antibody, V domains shown)
VH: EVQLVESGGGLVQPGGSLRLSCAASGFTFSDRGMAWVRQAPGKGLEWVSGISSSGRYTYYAPAVKGRATISRDNSKNTLYLQMNSLRAEDTAVYYCAKNAGAGGWHAAYIDAWGQGTTVTVSS
VL: SYELTQPPSVSVSPGQTASITCSGGGGSYGWYQQKPGQSPVTVIYWNDKRPSGIPERFSGSKSGNTATLTISGTQAMDEADYYCGGWDSSTYAIFGGGTKLTVL
notes: Tested as complete antibody (full-length IgG); also called humanized 4-1H antibody; G4-1H monoclonal antibody
Regarding B4, the binding result in assay [4] is reported as “binds”.

B5: EP-1F scFv clone displayed on phage (scFv, V domains shown)
VH: EVQLAESGGGLVQPGGSLRLSCAASGFTFSDRGMAWVRQAPGKGLEWVSGISSSGRYTYYAPAVKGRATISRDNSKNTLYLQMNSLRAEDTAVYYCAKNAVAGGWHAAYIDAWGQGTTVTVSS
VL: SYELTQPPSVSVSPGQTASITCSGGGGSYGWYQQKPGQSPVTVIYWNDKRPSGIPERFSGSKSGNTATLTISGTQAMDEADYYCGGWDSSTYAIFGGGTKLTVL
notes: as for B2
For the molecule B5, the binding result in assay [2] was “binds”.

B6: 10H(I) (antibody, V domains shown)
VH: EVQLVESGGGLVQPGGSLRLSCAASGFTFSDRGMAWVRQAPGKGLEWVSGISSSGRYTYYAPAVKGRATISRDNSKNTLYLQMNSLRAEDTAVYYCAKNAIAGGWHAAYIDAWGQGTTVTVSS
VL: SYELTQPPSVSVSPGQTASITCSGGGGSYGWYQQKPGQSPVTVIYWNDKRPSGIPERFSGSKSGNTATLTISGTQAMDEADYYCGGWDSSTYAIFGGGTKLTVL
For B6, the “affinity for CD55” value in the assay with recombinant human CD55 is on record as “lower affinity than EP-10H”. Further, the binding result in assay [1] is recorded as “binds”.

B7: EP-1E scFv clone displayed on phage (scFv, V domains shown)
VH: EVQLVESGGGLVQPGGSLRLSCAASGFTFSDRGMAWVRQAPGKGLEWVSGISSSGRYTYYAPAVKGRATISRDNSKNTLYLQMNSLRAEDTAVYYCAKNAVAGGWHAAYIDAWGQGTTVTVSS
VL: SYELTQPPSVSVSPGQTASITCSGGGGSYGWFQQKPGQSPVTVIYWNNKRPSGIPERFSGSKSGNTATLTISGTQAMDEADYYCGGWDSSTYAIFGGGTKLTVL
notes: as for B2
Take B7: the binding result in assay [2] is on record as “binds”.

B8: EP-9B scFv clone displayed on phage (scFv, V domains shown)
VH: EVQLVESGGGLVQPGGSLRLSCAASGFTFSDRGMVWVRQSPGKGLEWVSGISSSGRYTYYAPAVKGRATISRDNSKNTLYLQMNNLRAEDTAVYYCAKNAVAGGWHAAYIDAWGQGTTVTVSS
VL: SYELTQPPSVSVSPGQTASITCSGGGGSYGWYQQKPGQSPVTVIYWNDKRPSGIPERFSGSKSGNTATLTISGTQAMDEADYYCGGWDSSTYAIFGGGTKLTVL
notes: as for B2
In the case of B8, the binding result in assay [2] was “binds”.

B9: 3R-2-1H scFv clone displayed on phage (scFv, V domains shown)
VH: EVQLVESGGGLVQPGGSLRLSCVARGFTFSDRGMAWVRQAPGKGLEWVSGISSSGRYTYYAPAVKGRTTISRDNSKNTLYLQMNSLRAEDTAVYYCAKNAVAGGWHAAYIDAWGQGTTVTVSS
VL: SYELTQPPSVSVSPGQTASITCSGGGGSYGWYQQKPGQSPVTVIYWNDKRPSGIPERFSGSKSGNTATLTISGTQAMDEADYYCGGWDSSTYAIFGGGTKLTVL
notes: as for B2
As to B9, the binding result in assay [2] is reported as “binds”.
